{
  "source": "patent US20040138118",
  "key": {"[1]": {"system": "myostatin pro peptide (wild type)"}, "[2]": {"system": "D76A mutant myostatin pro peptide", "sequence (chain, as listed by the source D76A)": "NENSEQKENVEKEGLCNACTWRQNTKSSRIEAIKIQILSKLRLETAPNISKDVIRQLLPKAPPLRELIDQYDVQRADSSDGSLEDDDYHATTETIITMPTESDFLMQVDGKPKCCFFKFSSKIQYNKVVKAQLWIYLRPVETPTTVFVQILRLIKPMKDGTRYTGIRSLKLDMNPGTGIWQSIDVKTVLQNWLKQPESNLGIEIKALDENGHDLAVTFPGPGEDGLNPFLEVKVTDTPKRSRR"}},
  "data": [
    {"substance": "mammalian Tolloid (mTLD)", "values": [
      {"measurement": "partial proteolytic cleavage of the pro peptide in the latent complex, western blot (FIG. 3E)", "setting": "[1]", "value": "mTLD was consistently less active than the other three"},
      {"measurement": "proteolytic cleavage of free pro peptide", "setting": "[1]", "value": "All four of these proteinases also cleaved pro peptide that had been purified away from the C-terminal dimer"},
      {"measurement": "proteolytic cleavage, SDS-PAGE and western blot with anti-pro peptide antiserum", "setting": "[1]", "value": "A discrete proteolytic cleavage product of the pro peptide was detected in each reaction containing one of the four proteases"},
      {"measurement": "proteolytic cleavage of the mutant pro peptide in the latent complex, western blot (FIGS. 3D and E)", "setting": "[2]", "value": "completely resistant to proteolysis by each of the four proteinases"}
    ]}
  ]
}
